Data set [1] has as its target T1, Flag-IKKβ.
T1 chain: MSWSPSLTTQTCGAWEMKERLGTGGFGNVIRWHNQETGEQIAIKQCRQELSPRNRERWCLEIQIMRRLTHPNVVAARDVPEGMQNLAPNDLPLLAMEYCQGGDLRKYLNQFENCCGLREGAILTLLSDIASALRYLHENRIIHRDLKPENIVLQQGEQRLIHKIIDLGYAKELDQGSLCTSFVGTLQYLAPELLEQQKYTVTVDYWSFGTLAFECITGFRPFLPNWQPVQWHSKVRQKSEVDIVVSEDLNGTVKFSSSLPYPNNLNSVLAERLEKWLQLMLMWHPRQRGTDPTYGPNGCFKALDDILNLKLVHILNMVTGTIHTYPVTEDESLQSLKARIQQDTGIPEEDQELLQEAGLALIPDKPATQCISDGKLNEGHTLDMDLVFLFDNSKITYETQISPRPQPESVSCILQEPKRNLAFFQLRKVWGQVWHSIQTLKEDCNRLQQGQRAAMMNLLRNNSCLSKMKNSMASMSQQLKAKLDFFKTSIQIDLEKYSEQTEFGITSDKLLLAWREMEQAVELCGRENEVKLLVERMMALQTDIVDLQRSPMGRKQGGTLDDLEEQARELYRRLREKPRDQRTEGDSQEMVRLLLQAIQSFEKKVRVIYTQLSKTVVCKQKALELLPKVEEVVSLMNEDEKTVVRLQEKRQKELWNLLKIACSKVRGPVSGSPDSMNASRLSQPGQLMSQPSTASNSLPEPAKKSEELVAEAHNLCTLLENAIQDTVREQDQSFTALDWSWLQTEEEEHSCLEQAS

The target in data set [2] is T2, Flag-IKKβ (human, UniProt O14920 1-756).
T2 construct: Transiently coexpressed in 293 cells
T2 sequence: T1 chain
As to the kind of experiment: coimmunoprecipitation from transfected 293 cells: anti-HA immune complexes probed with anti-Flag(M2).

Data set [3] has as its target T3, IKKβ (full length human IKKβ subunit) (human, UniProt O14920 1-756).
T3 construct: Endogenous protein of HeLa cells; also called endogenous IKKβ; 87 kDa protein
T3 sequence: T1 chain
As to the kind of experiment: immunoprecipitation experiments, transfected mammalian cells.

Data set [4] deals with the molecule itself. Described as above.

Numbering of substitutions follows the chain as printed.

The text below walks through data of patent US20040228849A1 (University of California, published 2004).

B1: HA-IKKα(LZ)^- (enzyme, not shown: small tags and cut ends)
chain: MERPPGLRPGAGGPWEMRERLGTGGFGNVCLYQHRELDLKIAIKSCRLELSTKNRERWCHEIQIMKKLNHANVVKACDVPEELNILIHDVPLLAMEYCSGGDLRKLLNKPENCCGLKESQILSLLSDIGSGIRYLHENKIIHRDLKPENIVLQDVGGKIIHKIIDLGYAKDVDQGSLCTSFVGTLQYLAPELFENKPYTATVDYWSFGTMVFECIAGYRPFLHHLQPFTWHEKIKKKDPKCIFACEEMSGEVRFSSHLPQPNSLCSLIVEPMENWLQLMLNWDPQQRGGPVDLTLKQPRCFVLMDHILNLKIVHILNMTSAKIISFLLPPDESLHSLQSRIERETGINTGSQELLSETGISLDPRKPASQCVLDGVRGCDSYMVYLFDKSKTVYEGPFASRSLSDCVNYIVQDSKIQLPIIQLRKVWAEAVHYVSGLKEDYSRLFQGQRAAMLSLLRYNANSTKMKNTSISASQQLKAKLEFFHKSIQLDLERYSEQMTYGISSEKMLKAWKEMEEKAIHYAEVGVIGYLEDQIMSLHAEIMELQKSPYGRRQGDLMESLEQRAIDLYKQLKHRPSDHSYSDSTEMVKIIVHTVQSQDRVLKERFGHLSKLLGCKQKIIDLLPKVEVALSNIKEADNTVMFMQGKRQKEIWHLLKIACTQSSARSLVGSSLEGAVTPQAYAWLAPDLAEHDHSLSCVVTPQDGETSAQMIEENLNCLGHLSTIIHEANEEQGNSMMNLDWSWLTE
notes: Leucine zipper mutant of IKKα; also called IKKα(LZ)^- mutant; IKKα LZ^- mutant
Take B1: in the data set with Flag-IKKβ [1], the “IKK activity isolated by immunoprecipitation with anti-HA (IκB kinase activity)” value was “had no effect on the very low activity that coprecipitated with HA-IKKα(LZ)^-”. In addition, the binding result with Flag-IKKβ [2] is recorded as “no binding”.

B2: IKKα (full length human IKKα subunit) (enzyme)
chain: B1 chain with S462L, S469L
notes: Endogenous protein of HeLa or 293 cells; also called endogenous IKKα; 85 kDa protein
For the molecule B2, the binding result in data set [3] and in data set [4] was “binds” each time.
